Assay results from patent publication US20220401484A1 (BIONTECH, published 2022).

T1: PRAME peptide on HLA-A*02:01 (human)
T1 peptide: SLLQHLIGL

T2: PRAME peptide on HLA-A*02:04 (human)
T2 peptide: SLLQHLIGL

T3: PRAME peptide on HLA-A*02:02 (human)
T3 peptide: SLLQHLIGL

T4: irrelevant peptide peptide on HLA-A*02:01 (human)
T4 peptide: GLSNTHVL

B1: TCR T23.8-2.1-027-004 (TCR, V domains shown)
V domain 1: GQQLNQSPQSMFIQEGEDVSMNCTSSSIFNTWLWYKQDPGEGPVLLIALYKAGELTSNGRLTAQFGITRKDSFLNISASIPSDVGIYFCAGLADYGGSQGNLIFGKGTKLSVKP
V domain 2: DSGVTQTPKHLITATGQRVTLRCSPRSGDLSVYWYQQSLDQGLQFLIQYYNGEERAKGNILERFSAQQFPDLHSELNLSSLELGDSALYFCASSVWASGGYEQYFGPGTRLTVTE
B2: TCR T23.8-2.1-027-004 (TCR, V domains shown)
Valpha: B1 V domain 1
Vbeta: DSGVTQTPKHLITATGQRVTLRCSPRSGDLSVYWYQQSLDQGLQFLIQYYNGEERAKGNILERFSAQQFPDLHSELNLSSLELGDSALYFCASSVWASGGYEQYFGPGTRLTVT

Tests used:
[1] = biological target: PRAME peptide … presented by the HLA-A*02:01-encoded molecule (human); assay: cell-based or functional assay
[2] = biological target: T1, PRAME peptide on HLA-A*02:01; assay: IFN-gamma immunoassay; general statement of the description and claim 4; the same paragraph says preferably less than 10^-8 M (FIG. 2); full-length, on cells
[3] = biological target: T2, PRAME peptide on HLA-A*02:04; assay: cytokine release
[4] = biological target: T3, PRAME peptide on HLA-A*02:02; assay: cytokine release
[5] = biological target: T4, irrelevant peptide peptide on …; assay: cytokine release

Binder | EC50 value of the relative IFN-gamma release (peptide concentration on T2 cells) [1] | EC50 of peptide [2] | binding result [3] | binding result [4] | binding result [5]
B1 | 11.6 nM |  |  |  | 
B2 |  | < 100 nM | recognises | recognises | no recognition
